Results published in the supplement of paper PMC6757056.
± gives the standard deviation of the averaged measurements.

B1: library; a variant is named by its letters at N, in order (parent)
chain: GCUGUCACCGAGAAACUGUGAAGUAUAUCUUAAACCUGGGCACUUAAAAGAUAUAUGGAGUUAGUAGUGCAACCUGCUCGGUCUGAUGAGUCCNNNNNNGGACGAAACAGC

How the values were obtained:
cyclic di-GMP [1] = variants of: B1; assay: normalized RNA/DNA level without ligand (relative to sTRSVctl = 100) (log10 (% of sTRSVctl)); HEK293T; ligand: cyclic di-GMP (c-di-GMP-II aptamer); higher = less ribozyme self-cleavage, higher mRNA level; details: reporter: mCherry (pCS4076), ligand present: no
Method in brief: (§1)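 Only sequences with at least 100 DNA reads were analyzed, from HEK293T cells transfected with 4 µg per 6-well well of ribozyme switch library plasmids 72 h before RNA extraction with EDTA. Any ligand was added 1 h before transfection. RNA level was defined as RNA over DNA reads, normalized to a spiked-in non-cleaving sequence or to the top sequences, then scaled and log-transformed. The top set was 25 sequences, and the scaling was ×100 followed by log10.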

cyclic di-GMP [2] = variants of: B1; assay: normalized RNA/DNA level with ligand (relative to sTRSVctl = 100) (log10 (% of sTRSVctl)); HEK293T; ligand: cyclic di-GMP (c-di-GMP-II aptamer); ligand concentration (+) RNA-Seq: 1 mM; higher = less ribozyme self-cleavage, higher mRNA level; details: reporter: mCherry (pCS4076), ligand present: yes
Method in brief: as §1

Row | Variant | normalized RNA/DNA level without ligand (log10) (cyclic di-GMP [1]) | normalized RNA/DNA level with ligand (log10) (cyclic di-GMP [2])
1 | GGGACA | 1.7 ± 0.042 | 1.75 ± 0.11
2 | GGGACC | 1.84 ± 0.063 | 1.9 ± 0.15
3 | GGGACU | 1.68 ± 0.031 | 1.83 ± 0.056
4 | AGGAUU | 1.49 ± 0.032 | 1.73 ± 0.12
5 | GGGAAG | 1.63 ± 0.069 | 1.7145 ± 0.00089
6 | GGGAAU | 1.6 ± 0.095 | 1.79 ± 0.14
7 | GGGAAC | 1.68 ± 0.031 | 1.84 ± 0.057
8 | GGGAAA | 1.46 ± 0.14 | 1.544 ± 0.007
9 | CGCGUC | 1.77 ± 0.062 | 1.88 ± 0.15
10 | CGCGUG | 1.62 ± 0.034 | 1.79 ± 0.12
11 | CGCGUU | 1.67 ± 0.021 | 1.86 ± 0.12
12 | GGCUUC | 1.75 ± 0.064 | 1.82 ± 0.12
13 | GGCUUA | 1.61 ± 0.074 | 1.79 ± 0.12
14 | GGCUUU | 1.73 ± 0.03 | 1.88 ± 0.075
15 | GGCUUG | 1.64 ± 0.062 | 1.851 ± 0.0082
16 | AGGAAC | 1.54 ± 0.12 | 1.68 ± 0.12
17 | GGCCUC | 1.742 ± 0.015 | 1.83 ± 0.11
18 | GGCCUA | 1.61 ± 0.12 | 1.83 ± 0.13
19 | GGCCUU | 1.791 ± 0.013 | 1.9 ± 0.059
20 | GGCCUG | 1.82 ± 0.026 | 1.87 ± 0.19
21 | UGGCUA | 1.719 ± 0.003 | 1.87 ± 0.11
22 | UGGCUG | 1.836 ± 0.013 | 1.9 ± 0.095
23 | UGGCUC | 1.78 ± 0.047 | 1.92 ± 0.077

Row | Variant | normalized RNA/DNA level without ligand (log10) (cyclic di-GMP [1]) | normalized RNA/DNA level with ligand (log10) (cyclic di-GMP [2])
24 | UGGCUU | 1.694 ± 0.014 | 1.88 ± 0.058
25 | CGCUGC | 1.806 ± 0.0025 | 1.9 ± 0.092
26 | CGCUGG | 1.67 ± 0.039 | 1.78 ± 0.086
27 | GGGGAA | 1.48 ± 0.1 | 1.54 ± 0.055
28 | AGCGCU | 1.7 ± 0.044 | 1.82 ± 0.17
29 | AGCGCC | 1.7734 ± 0.0015 | 1.91 ± 0.082
30 | AGCGCA | 1.661 ± 0.005 | 1.78 ± 0.12
31 | AGCGCG | 1.708 ± 0.0043 | 1.83 ± 0.12
32 | GGGAGC | 1.625 ± 0.0022 | 1.76 ± 0.1
33 | GGGAGU | 1.67 ± 0.071 | 1.72 ± 0.16
34 | AGGCGA | 1.56 ± 0.037 | 1.67 ± 0.13
35 | AGGCGG | 1.79 ± 0.026 | 1.88 ± 0.063
36 | AGGCGC | 1.74 ± 0.075 | 1.86 ± 0.088
37 | AGGCGU | 1.609 ± 0.0044 | 1.76 ± 0.12
38 | GGCGAU | 1.586 ± 0.014 | 1.72 ± 0.11
39 | GGCGAA | 1.558 ± 0.0061 | 1.77 ± 0.2
40 | GGCGAC | 1.76 ± 0.093 | 1.88 ± 0.16
41 | CGGCGG | 1.68 ± 0.059 | 1.81 ± 0.077
42 | CGGCGA | 1.49 ± 0.068 | 1.67 ± 0.11
43 | CGGCGU | 1.726 ± 0.013 | 1.91 ± 0.16
44 | UGCUCG | 1.77 ± 0.059 | 1.89 ± 0.16
45 | UGCUCU | 1.77 ± 0.018 | 1.92 ± 0.05
46 | UGCUCA | 1.762 ± 0.015 | 1.85 ± 0.09

Row | Variant | normalized RNA/DNA level without ligand (log10) (cyclic di-GMP [1]) | normalized RNA/DNA level with ligand (log10) (cyclic di-GMP [2])
47 | UGCUCC | 1.858 ± 0.016 | 1.93 ± 0.17
48 | CGCGCA | 1.65 ± 0.046 | 1.75 ± 0.13
49 | CGCGCU | 1.702 ± 0.016 | 1.83 ± 0.11
50 | CGCGCC | 1.75 ± 0.025 | 1.88 ± 0.14
51 | CGCGCG | 1.83 ± 0.025 | 1.92 ± 0.038
52 | GGGCGC | 1.84 ± 0.027 | 1.92 ± 0.091
53 | AGGACU | 1.66 ± 0.014 | 1.82 ± 0.088
54 | AGGACG | 1.589 ± 0.0076 | 1.7 ± 0.1
55 | AGCUUU | 1.712 ± 0.0062 | 1.85 ± 0.12
56 | AGCUUC | 1.77 ± 0.026 | 1.9 ± 0.059
57 | AGCUUA | 1.57 ± 0.055 | 1.76 ± 0.11
58 | CGCUAG | 1.747 ± 0.0046 | 1.87 ± 0.15
59 | CGCUUG | 1.73 ± 0.043 | 1.88 ± 0.055
60 | CGCUUC | 1.62 ± 0.051 | 1.81 ± 0.081
61 | GGCGUA | 1.6 ± 0.017 | 1.74 ± 0.13
62 | GGCGUC | 1.68 ± 0.077 | 1.79 ± 0.17
63 | GGCGUG | 1.75 ± 0.017 | 1.86 ± 0.15
64 | GGCUGG | 1.746 ± 0.013 | 1.82 ± 0.092
65 | GGCUGU | 1.68 ± 0.05 | 1.79 ± 0.18
66 | GGCUGA | 1.54 ± 0.052 | 1.71 ± 0.14
67 | GGCUGC | 1.7019 ± 0.0016 | 1.83 ± 0.11
68 | UGCCGG | 1.75 ± 0.04 | 1.86 ± 0.039
69 | UGCCGU | 1.66 ± 0.013 | 1.83 ± 0.12

Row | Variant | normalized RNA/DNA level without ligand (log10) (cyclic di-GMP [1]) | normalized RNA/DNA level with ligand (log10) (cyclic di-GMP [2])
70 | UGCCGC | 1.774 ± 0.015 | 1.9 ± 0.049
71 | UGCCGA | 1.626 ± 0.012 | 1.79 ± 0.12
72 | CGCUCC | 1.77 ± 0.035 | 1.89 ± 0.084
73 | CGCUCA | 1.47 ± 0.05 | 1.68 ± 0.15
74 | CGCUCG | 1.77 ± 0.077 | 1.88 ± 0.16
75 | GGCCGC | 1.71 ± 0.03 | 1.84 ± 0.097
76 | AGCGAG | 1.57 ± 0.13 | 1.74 ± 0.042
77 | AGCGAU | 1.71 ± 0.015 | 1.87 ± 0.1
78 | AGCGAC | 1.65 ± 0.052 | 1.81 ± 0.077
79 | CGGAGA | 1.32 ± 0.11 | 1.55 ± 0.13
80 | CGGAGU | 1.63 ± 0.03 | 1.8 ± 0.1
81 | CGGAGG | 1.623 ± 0.014 | 1.82 ± 0.12
82 | UGCCUU | 1.725 ± 0.0025 | 1.87 ± 0.082
83 | UGCCUC | 1.77 ± 0.072 | 1.9 ± 0.15
84 | UGCCUG | 1.78 ± 0.047 | 1.88 ± 0.14
85 | UGCCUA | 1.728 ± 0.0086 | 1.86 ± 0.074
86 | UGGGCG | 1.84 ± 0.035 | 1.92 ± 0.13
87 | UGGGCA | 1.835 ± 0.0077 | 1.93 ± 0.08
88 | UGGGCC | 1.94 ± 0.036 | 1.97 ± 0.081
89 | UGGGCU | 1.81 ± 0.042 | 1.89 ± 0.089
90 | UGGACA | 1.712 ± 0.0091 | 1.83 ± 0.11
91 | UGGACG | 1.782 ± 0.011 | 1.86 ± 0.15
92 | GGCUAA | 1.55 ± 0.09 | 1.71 ± 0.14

Row | Variant | normalized RNA/DNA level without ligand (log10) (cyclic di-GMP [1]) | normalized RNA/DNA level with ligand (log10) (cyclic di-GMP [2])
93 | GGCUAC | 1.7 ± 0.023 | 1.84 ± 0.085
94 | GGCUAG | 1.5161 ± 0.00019 | 1.683 ± 0.0052
95 | GGCUAU | 1.66 ± 0.048 | 1.78 ± 0.021
96 | AGGCCC | 1.86 ± 0.05 | 1.95 ± 0.1
97 | AGGCCA | 1.721 ± 0.017 | 1.85 ± 0.096
98 | AGGCCU | 1.768 ± 0.013 | 1.89 ± 0.099
99 | UGGCCC | 1.88 ± 0.062 | 1.96 ± 0.094
100 | UGGCCG | 1.9 ± 0.067 | 1.96 ± 0.1
101 | UGGCCA | 1.79 ± 0.029 | 1.86 ± 0.12
102 | UGGCCU | 1.84 ± 0.12 | 1.97 ± 0.15
103 | GGGCUC | 1.88 ± 0.051 | 1.98 ± 0.042
104 | AGGAGC | 1.61 ± 0.065 | 1.7 ± 0.13
105 | AGGAGU | 1.52 ± 0.084 | 1.67 ± 0.058
106 | AGGAGG | 1.6462 ± 0.0014 | 1.74 ± 0.1
107 | CGCCUG | 1.74 ± 0.036 | 1.82 ± 0.1
108 | AGCGUA | 1.55 ± 0.087 | 1.71 ± 0.1
109 | AGCGUU | 1.678 ± 0.0089 | 1.82 ± 0.16
110 | GGCUCU | 1.78 ± 0.041 | 1.92 ± 0.076
111 | GGCUCG | 1.78 ± 0.055 | 1.87 ± 0.036
112 | GGCUCA | 1.69 ± 0.021 | 1.88 ± 0.22
113 | GGCUCC | 1.88 ± 0.022 | 1.96 ± 0.11
114 | UGCUGC | 1.76 ± 0.025 | 1.92 ± 0.1
115 | UGCUGG | 1.696 ± 0.014 | 1.87 ± 0.15
